This series in a line: soluble on expression in E. coli; label from the status in PepcDB or PDB records.
On to “MGSDKIHHHHHHMAKSSLGQDSDSTAAVAVLKRAVELDAESRYQQALVCYQEGIDMLLQVLKGTKESSKRCVLRTKISGYMDRAENIKKYLDQEKEDGKYHKQIKIEENATGFSYESLFREYLHETVTEVWIEDPYIRQTHQLYNFLRFCEMLIKKPCKVRTIHLLTSGYEGLGNTQQSSGLEEIKQSLGSHGVVLEINYSSSIHDREIRFNNGWMIKIGRGLDYFKKPQGRFSLGYYDLDLRPCHETTVDIFHNKHTKKI”, for which the “soluble on expression in E. coli” value is “not soluble”.
Next, “MGSDKIHHHHHHMLNKVLTHLDENIEKSLERLFSLLRFQSISTDFAYKDECRKAADWLVEDLKSIGFKASRRDTSGHPMVVGHHPGPSDDCLHVLFYGHYDVQPVDPLNLWEDDPFTPSLKEREGEKVICARGASDDKGQLMTFIEACRAFKKETGQLPVRVTVLFEGEEESGSSSLVPFLKANKDELKADCALVCDTSMWDADTPSVSVALRGILGEEIIITAANRDLHSGYFGGAAANPIRILTKVLAGLHDENNRVTLPGFYDGVEETPPHILQSWNALNCTAENFLGPIGLSLPAGEKGRSVLELVWARPTAEINGISGGYEGEGIKTVIASQASAKVSFRLVHKQDPEKIRQAFRDYVCSLIPADCSVVFKEHGASPAIQLPYDSPFIKTAKDALSQEWNNPALLTVMGGSIPIVADFQSILDMETLLVGFALADDRIHSPNEKYNLKSFHKGQRSWARILATLAKTGG”: “not soluble”.
With “MGSDKIHHHHHHAQNTASVQEAMANYDYKTVIRLIDEESASPQLLIQKAKALKSLGRTAEALSTLQHIIIELPENQQALVEAAECCRQLSKFNEALGYYRKVMELNPEHIYAHLQYTRLLYNYQRYGDALRESIALARKDSSATVLRLMAESMEGAGMPVESMFCYLSIIRKYPSDYLSVAKLGSIFNTMKDYEGAIALTEAYRRTDSTNVEVNRQNALAYCLRKEYPTAIKRYQDLTARGDSTLLTCYYLGVSYYATKEYYKARDWLLKAKSCQSPGANLLYYLGRSCSKTLWKQEGIGYLNQAIALTIPADSIMERLYSGLADCYRQTKQTRDQIKATKEQYKYAPDKHILLYNLAFLSDKIGDTKATEHYLQAFLRTKSKQNAVLQQPDDDEEEPAPYIDYYKSATNKLESIRKEKFLKGEK”, the “soluble on expression in E. coli” value was “not soluble”.
Next, “MVDSDDDGDRRRDKFARERRDEDYRRGGGGFNRYDNKRPGGRRDDYQVKRSRGDDADDSFDPVSRSGNGSDLPTESDSIYSGPLQTFKKFLTSQEDDISEEDAIKKYNEYKTEHRKHQLERFFRAHKDEEWFRLKYKPDDAKKLREAHLENVQKRLQVFNELKEQGQFNKFSLDFGDAEAIIRMLDSVVVKLENGTEDELKAVLAQKLEDESLADIKKDENGNGTEQPKEEPEVKQESGATEELEEGAIEDGTEKSSNKVNIHRTCSVFLRNIPPGLTYEELEGLCKKSPGFLRLALTDGIAERKFYRRGWATFKRDINIKEICWALNAHRLRETDLNAIINRDITRRVRTNNGIASHKQVAINDLKLAVKLTVLYDKKIGLFNAADEADADREMDIRMGVDLVAASTNPLIKEVKSLVPHDVLNDISEEEAELLGVSNGGEAPAEKIRFERDDNILKALDLLIVYLRIVHSIDFYNHGHYAQEDSMPNRCGLIHVRGQPPSGVSITTDEDGALVVPQKFVNDFISGFNSRIEKGLIEKQYVSEEELEKMGKKDGEKEVEAFIQKNTVELAKDKWLCPLSGKKFKGPEFIRKHLQSKHEDKLEEARAEADFFNNYLADAQRPVDCEPKQAPRDDHRGGGGGERGGYGRERDDDRGPGGGGRNSFGGGGYDRRPQFPPRHSLGGRGGGGRYFEDAPRRQPVSYRDLDAPDDIP”: “not soluble”.
Next, “MSLEKKDNVFTFGNALSLYYKDYETPLIINTDDINQFKRSDKFYVLGNEFNAEIKYPYFMSSLYCIESGDIVMVYNAVELIQRPRLIIKALMALRKKYGFSKLIYLPGIGDPYIIPVLVYAGADLFDDTYIKEESINNIKYTMMGKTKSSDNNINDNLKFANDIISLLRSSIKTGTLREFVEKFQYSSRAIEMLRIIDNDYFSDYSMVFPVYTPYIKANTIESLNRPDIVSYRNYIKNDYSKPDVENLLILPCSAKKPYSKSKSHKKILSRIEKYRKYIHELIVTSPVGLVPRELESMYPAAFYDIPVIGLWYEDEKKMINDLLKSYLSKNRYKNIIAYIDEDLNFIKSSGNIILIEGNILSEEKLSELESTLRDLTINSPKMDHLFNYKSMLSYQFGTWIKDYLDDIKISRSYNMDMVTRNGRALFVFNEKLGRFTINRNGAGIFLNAGKKIVYIDDFKPTSYVFNAGIKDATDDIKPGDEVIIVHNNEIRGVGTALISYRAMIDLDHGAGVKVREGHHHHHH”: “soluble”; “MGGSHHHHHHGMASALRTDKKSEFLKALKRDRVEEEHEDESRAGSEKDDDSFNLHNSNSTHQERDINRNFDENEIPQENGNASVISQQIIRSSTFPQTDVLSSSLEAEHRLLKEMGWQEDSENDETCAPLTEDEMREFQVISEQLQKNGLRKNGILKNGLICDFKFGPWKNSTFKPTTENDDTETSSSDTSDDDDV”: “not soluble”.
With “MAHHHHHHMSMNNPAPSPQAPMAAPLDASATVHPRENLAVSAPPGATGAGHNKRLPEELAEFLHTQPPRMETINERKQLFCTRLYMTPPRVLATEGAERRGETLGASLTATGTTSNDSVVGAPLLRSPPPAVLPAAGAPASLKIAKTVPFSEEEHLAWLCAPASPTESRTSAAVPPEAAASSRGLARTERISHAQSEGVRRHEPDRRAVGATATQQPHLSHGASDAHGNDAPARLQGLVAASMATAPNPATPLALQHGEISYKSSFSVLTSWDALMVAPPLLRTTPRMPSLLTQDVENIGTAAMHLNRSTTVTHACASDDVARIPSTGSRAELLIGTSPATEKGEARQEEARADAVLQQPVFPSSCCTRSPTTVPSRLKYDGHGLSPEDSLHQVEEDSARTFVKHFTNGLVFVDPPWFICPVLLDNCEHPYYMTWLDELEVGSVEEAVAETKAKLLTDA” the entry was “not soluble”; with “MAHHHHHHMRLASPFSRAAWQLQETHNLSPLLRRRACAAPVAATSPSAFCTARRCLSQQASHWLNKLRYGADDAPTMGSWDSAYEDDAMDTRKLYCKALVHASGGSRLARDWIAGCAALTSPDPSLIYTALQHAATEADVEELREHILGRLLAQESPRRGGRSGGSCDNEVRTSFGMYEESEREVVVPGTGNVAVKRAVAPNCAGQSSIHERDGKDGASEATSPPITSEGIRDAEHYLLQRSREVRCFMYDAMTASLFHSNNDLRTVEAARRHTFWIGLTQFGLSFDELTALWRLVEAELLLKKEKIKVLGQPWGE”, “soluble”; with “MGSDKIHHHHHHMSLANRYEFVYLFDVSNGNPNGDPDAGNLPRLDPETNQGLVTDVCLKRKLRNYVALEKENEPGFAIYMQEKSVLNHQHKRAYEALSLEPEPKKLPKDQAKARELTAWMCKNFFDVRAFGAVMTTEVNAGQVRGPIQLTFATSIDPVVPLEVSITRMAVTNDKDLEKERTMGRKHIVPYGLYRAHGFVSAKLAERAGFGEEDLQLLWRGLINMFEHDRSAARGEMTARKLIAFKHECALGNAPAHRLFDSVRVSRADGAGDSPARGFTDYRVELDRAVLPAGVEVLELL”, “not soluble”.
With “MGSDKIHHHHHHMKTDITVVKASHLQPFISFLDKVGAPLDRLLNQVNLHADYFSDQENLIAEAPFWALLEHASYSQGIEDLGFQVTEQLSLDSFGVFGAKVMQADSLHQALTTFIRDMGQQSNCPPFWLMEQGAFVWFCRLGTQGIKKGHWPIEQHVISLMIQLVRGFTTATWTPPKVHLQTHTLKGADNTASFSNSQILINKAFTGICISKSLLLNGAVIKPKDRVAEEVAHQMTISTVNSHVIKELLMQSCANQPLNAQQIANSLGLNIRHMQRLLKEEGCSYRELSEQVLFKQSQVMLSTEQLSVLEVALALGYSDAANFTRAFKRWSGLSPTQYKLLLN”, the “soluble on expression in E. coli” value is recorded as “not soluble”.
Consider “MQDYMQHLPHMQEIKSEILNKVLTQVQSYDESQFSAKDVKNALNQTHLSIEHLKALLSSAAEDFIEELAFKSAKVKQKYFGNSISLFTPLYLSNYCNSKCVYCGFQKGNKIARAKLNEAEIHEEMQAIAKSGLEEILMLTGEGREFASVEYIANACKIAREYFKVVGVEIYPMNEDEYKILHEKGCDYVTVFQETYNPLKYSKIHLAGEKRIFPYRFNAQERALKAGMRGVAFAALLGIDDFRKDALATALHAHFLQQAYSHAEISISVPRLRPIINNAKIHPKDVSEKRLLQVLCAYRLFLPFAGITISSRERIGFRDEVIKLGATKMSAGVSVGIGEHKGEKKGDEQFEISDDRSVDEILAMLKRSNLQAVMSDSIYVG”, for which the “soluble on expression in E. coli” value was “not soluble”.
With “MKRTIQETPGPSSTTVPPPKKLNSQRNGSNLEPGSIYFTPIGGISVPRQESESSRSLDEILADIRPINSLHFSFMLDFEFLIGSYPPSLREYPITLVVGAPDAPDLLKCTKNQKLVTVVGASLPIPFGTHHTKMSILEDEDGRFHVIVSTANLVPDDWEFKTQQFYYNFGVKIASGTVPRSDFQDDLLEYLSMYRNQLDTWKQLLQKVDFSQISDRLIFSTPGYHTDPPTQRPGHPRLFRILSEKFPFDASYEHTERCTFVAQCSSIGSLGSAPINWFRGQFLQSLEGANPSPKQKPAKMYLVFPSVEDVRTSCQGYAGGCSVPYRNSVHARQKWLQGNMCKWRSNAKRRTNAVPHCKTYVKYDKKVAIWQLLTSANLSKAAWGEVSFNKSKNVEQLMIRSWEMGVLITDPSRFNIPFDYPLVPYSATDEPFVTDKKHEKPDILGCIWTPP” the entry was “not soluble”.
With “MCIAAWVWQAHPQHQLLLLLNRDEFHSRPTKAVGWWGEGSKKILGGRDVLGGGTWMGCTKDGRLAFLTNVLEPDAMPGARTRGDLPLRFLQSNKSPLEVATEVAKEADEYNGFNLVLADLTTNVMVYVSNRPKGQPATIQLVSPGLHVLSNARLDSPWQKAIRLGKNFREHLRKHGDDEVEAKDIVERLMTDTTKADKDRLPNTGCDPNWEHGLSSIFIEVQTDQGLYGTRSTAVLSVNYDGEASLYEKYLESGIWKDHTVHYQIE” the entry was “soluble”; with “SLKYCIHNTRLIIGIADRVIENGSILFDQDKILKVSAHSITDADVFIDGTTFSVLPGLIDVHVHLGMDCSVDPFDTMENTEDAFTSFIAYKQGLQFLRAGITTVRNLGTKNNVDIIYKKAVESGLVIGPRVYAAGQPLIMTGGHGQPMGTEVDGKDEVIKATRQRIKEGADLIKIMATGGVLTKGNHPGAVHFNVDELKCICQEAAKASLTTAAHAIGLNGVKNAIKAGVNTIEHGYYLDKETVDTMRDLGIYLTPTLLAPTLLQKNSEHIPQHMIDKIEEIEKEHRKSFRLALERGVKIIAGTDAGTPFNNPGQLVEELKIMLEEGMTTAQAIESATYLGAKCLKVDSLIGSLEEQKLADLIVVKGNPLEDISNLKNIQHVFKGGVRLYPDQIH”, “soluble”.
Next, “MHRKISCGINDIKSEFFEAERMNNSVTVEVTRGNLVESRHQGLAVVVDGDGGVLFSAGDIERGIFPRSACKAMQALPLVESGATDAYGFGNRELALACSSHSGEDAHAELAAAMLAKAGRDVDTLECGAHWSSDQKTIIHQARTLEKPTALHNNCSGKHSGFICACCHTGTDPKGYVGYDHPLQRQIRATMESLTGAALGHDNCGVDGCSIPTYAVPLKGLAHGFAKMATGRGLEAERAKASRRLIEACMAEPFYVAGTGRACTKLMQIAPGKIFAKTGAEGVFIAALPNQGIAMAVKCEDGTTRAAEAMVTALLARYFDDGSAEQQALKGMANRQMRNWNGIHVGDISVIGLAAALEHHHHHH”: “soluble”; “MSLNAQLNDLGPIKAVIFDMDGLLLDTEGIYTEITQLIAERYGRTYDWTIKQNIIGRGAGDLARYVVQALDLPISAEEFLVMREPLMRERFPRAQAMPGAQELVRHLKEHRIPIAVGTSSSQMSFGEKTTRHGDWFALFDTIVTADDPEVTAAKPAPDIFLTAARRLGVAPAECLVFEDSPFGVTAARAAGMSVIAVPDPAMADSKFAHAHGIIRSLKGFQPAACGLPHLHWDEGHHHHHH”: “soluble”.
